Laboratory results published in the RNAGym collection of RNA variant scans (doi:10.1073/pnas.2313332121).

B1: TPR t1 (parent)
chain: GACCAAUCUGCCCUCAGAGCUCGAGAACAUCUUCGGAUGCAGAGGAGGCAGGCUUCGGUGGCGCGAUAGCGCCAACGUCCUCAACCUCCAAUGCAUCCCACCACAUGAUGAUGCCUGAAGAGCCUUGGUUUUUUG

Variants of: B1
Test: polymerase ribozyme fitness, log enrichment relative to wild type (log ratio); higher = more active; in vitro selection for triplet polymerase activity
Method in brief: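 Fitness compares each genotype's enrichment to that of the wild type on a logarithmic scale, averaging replicates with inverse-variance weights. The logarithm is base 2. Enrichment came from Illumina sequencing of input and output libraries after one triplicate round of in vitro selection, which included frozen incubation at −7 °C, of PCR-built, transcribed mutant libraries of each subunit of a heterodimeric triplet polymerase ribozyme. Only genotypes with ≥10 input reads and ≥1 read per output were kept.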

In order of falling “polymerase ribozyme fitness (log ratio)” value:
1. C3A C124G  1.55
2. C3U G71U A121G U125A  1.49
3. A2G U87A U112A  1.3
4. C3U C13U G120A  1.11
5. C3G G120A C124G G128C  0.839
6. A2C C124A  0.652
7. C3G C12G G120A G128U  0.37
8. A2G C104U  0.0974
9. C3U C12A A75U U87C C124U  0.0602
10. A2G A74C  -0.276
11. C3U C73U  -0.279
12. A2G G10U C88U A119U  -0.34
13. C3A G48A C86U A121G G127C U131G U132A  -0.349
14. C3G C8G  -0.464
15. C3A U78C U87C C102U C124G U131A  -0.482
16. A2G C34A U55A U112C  -0.554
17. A2G U9C G69C  -0.585
18. A2G C8U A83G  -0.602
19. A2U C3G C123G  -0.606
20. A2U C11G G122A  -0.62
21. C3U C11U A37U C53U  -0.631
22. C3U C12G C72U  -0.647
23. C3A A74U G120U U125A  -0.657
24. C3U C79U  -0.681
25. A2C C123A  -0.696
26. A2U G10U C15G G69U U106A  -0.732
27. C3U C12G A46C  -0.734
28. C3U G57A C72U  -0.755
29. C3A G52U C123A  -0.759
30. C3U A84U  -0.78
31. C3U C82G  -0.798
32. C3U C72G  -0.854
33. C3U C12A  -0.942
34. A2G C12U C89G  -0.965
35. C3G A5U C11U C73U C89G C123U  -1.08
36. C3U C20G G113A  -1.16
37. A2G C40A G58A  -1.21
38. C3A U7A G57U G60C A83U A121C  -1.26
39. C3A G61A C79U  -1.27
40. C3A C72A A111C  -1.3
41. A2U A5G U9G C13U C64U G122A  -1.31
42. A2G G110A  -1.38
43. A2G C8G G57U C85A  -1.4
44. C3U C8G A29G  -1.43
45. C3A C12U G42A G44C C79U C88A A118G G120A  -1.44
46. A2C G45A C53A  -1.45
47. C3U C11A  -1.47
48. C3U C115U  -1.53
49. C3A C12A  -1.53
50. C3G C62U  -1.58
51. C3G U106C C123G  -1.58
52. C3A U14G A119U G120A  -1.62
53. A2G C12G C20A G69U U78C U130C  -1.63
54. C3A C8A C53G C101A  -1.64
55. A2C U78C  -1.64
56. A2U G69U  -1.7
57. A2U C72G  -1.72
58. C3A G52U  -1.75
59. A2G C11A  -1.77
60. C3U C4A  -1.77
61. A2C G52A C79A A95U C123U G135A  -1.79
62. A2U A5G C12U U112G  -1.79
63. C3U C70A  -1.81
64. A2C G47U U78C U112C  -1.88
65. A2G G39U C115A  -1.93
66. C3A C115A  -1.99
67. A2U C72U  -2.02
68. A2U U14A G69U C82U A119C G120U  -2.15
69. C3G A95G C101A A111C  -2.16
70. C3U G51U C80U  -2.32
71. C3A C97U  -2.33
72. C3G C13U G45U G48A  -2.41
73. C3A C8A C62A C97U  -2.46
74. A2G C99U C101A A121G C124G  -2.5
75. C3A U130A  -2.53
76. C3U C11G U21G G113U G127A  -2.58
77. C3U G47A G60A C85G C123U  -2.64
78. C3G C94G C114U G128C  -2.66
79. A2G G19A  -2.68
80. A2C U9G G61U G110A  -2.69
81. C3A G48U U125A  -2.7
82. A2C G36A A50U G77A C123U  -2.76
83. C3U C11A G47A U87G  -2.77
84. A2U C13G C62U  -2.85
85. A2C G71A C82A  -2.88
86. C3G C102U C124A  -2.89
87. A2G C11G G61A U129A G135U  -2.91
88. C3U C12A A91U  -2.92
89. A2U A50G G71U A118G  -2.92
90. C3G C20U A46G C124U  -2.93
91. A2G G51A  -2.94
92. A2G G77U C86G G135U  -2.95
93. A2U G45A C62U C115U U133A  -2.99
94. C3U A43C U87G  -3
95. A2C G117A  -3
96. C3A A6C A91U U125A  -3.02
97. C3A C4A G51A G60A A84G G120U  -3.02
98. A2U C8U G36U C80U G127C U130C  -3.03
99. A2G C73G C85A G113A G120C  -3.08
100. C3U A6C C13A  -3.09
101. A2U G10U A90C G122A  -3.13
102. C3A G39A G113A C124U  -3.14
103. C3U A27G G42U C72U C82U C104U  -3.31
104. C3U A41C C70G U112C C124U  -3.32
105. C3U A41C G42A U78C U92G  -3.33
106. C3U G44C C114A A119U G122C  -3.33
107. C3U U9A A27G G42U A100U U133A  -3.45
108. C3A G61C  -3.47
109. A2G G47C U81G  -3.47
110. C3U C13G G48U A50U U92C G120A U131A  -3.5
111. A2U C3G G63A  -3.64
112. A2G U14A C62A  -3.69
113. C3U C34A C76U G120C  -3.72
114. A2G U38G G42U G61U C73U C115U  -3.74
115. A2G C20A G63C C114A  -3.77
116. A2U C49U  -3.77
117. A2U C34A G60A G120U U125A U132A  -3.85
118. C3A C20G A119U A121U U132C  -3.91
119. A2G G19U C62U C86U  -3.94
120. A2U G61C  -3.94
121. C3A A37U C114U  -3.95
122. C3A G39U C114A U125G  -3.98
123. C3U C79A G117A  -4
124. C3U G110C  -4.17
125. C3U C28U G71A C89A C123G U130C  -4.19
126. A2U G63U  -4.25
127. C3G C70G  -4.26
128. C3U G39U G47A G117A  -4.33
129. C3U C56G G58U G113U  -4.35
130. A2U G69A  -4.39
131. A2U C64U C115G C124U  -4.43
132. A2U U32C C62A  -4.44
133. A2U C56A U106A C115G  -4.51
134. C3U C62G G113A C114G A121U  -4.51
135. A2U C28U C49A C101G U106A  -4.56
136. A2C G117U U129A  -4.64
137. C3U C22G C56U G117C  -4.66
138. A2U C20U G63C C89A A111C C123A  -4.79
139. A2G G36A C49G G61U A83U G110U U129C  -4.82
140. C3A G110C C123G  -4.82
141. C3A G36A G44C C72A U130A  -4.85
142. A2U C64U A83G A111C  -4.94
143. C3A G71U C115G A118U  -4.97
144. A2U C13G G60U C85A  -4.99
145. A2U C89G  -5.02
146. C3G G36U C72G C86A C99G U112G U129C U134G  -5.02
147. A2U C64U C89G  -5.12
148. C3G C56A C86G C104A  -5.13
149. C3A C8A C11G C22A G45U C88G  -5.16
150. C3U C12U C53G C56U U106A A111C C123G G127A  -5.21
151. C3U C79G C97G A121G  -5.3
152. A2G C88G G113C G128A U129G  -5.6
153. A2U A41C C114U U133G  -5.64
154. C3U C4A U14G U32G A37G A46C C49A C53U C114G U116C  -5.66
155. C3G U109G  -5.75
156. C3A C40A A91C G117C A119U  -5.83
157. C3A C34U C53A C89A C123G  -5.9
158. C3G G39C C53G G113U  -5.93
159. A2U G57U G117U  -5.98
160. A2U G23U G60U C79U G110A  -6
161. C3U G17A G36C C49A A50U G58C G60A C88U G117U  -6.3
162. C3A C13G C28A G51U G71C G110U  -6.35
163. A2G G48U C53G C86U C98A C123G C124A  -6.57
164. A2U G10U A18G U33G G60A C124A  -6.77
165. A2U C11U A27U G48U C64A C99G G113C  -6.93
166. C3U A27U G52U C72U C76U C85U U116G C124U U129C  -7.12
167. A2U A16U U32A A41C G69U C89A  -7.42
